# B1: AGTM: AGT mutant Cys62Ala, Gln115Ser, Gln116His, Lys125Ala, Ala127Thr, Arg128Ala, Gly131Lys, Gly132Thr, Met134Leu, Arg135Ser, Cys150Asn, Ser151Ile, Ser152Asn, Asn157Gly, Ser159Glu, truncated after … (protein, UniProt P16455 1-207, looked up, variant C62A Q115S Q116H K125A A127T R128A G131K G132T M134L R135S C150N S151I S152N N157G S159E del183-207)
# Methylated-DNA--protein-cystei …: MDKDCEMKRTTLDSPLGKLELSGCEQGLHEIKLLGKGTSAADAVEVPAPAAVLGGPEPLMQATAWLNAYFHQPEAIEEFPVPALHHPVFQQESFTRQVLWKLLKVVKFGEVISYSHLAALAGNPAATAAVKTALSGNPVPILIPCHRVVNINGAVGGYEGGLAVKEWLLAHEGHRLGKPGLG
# modifications: His tag
# Experiments:
# [1] = Reaction of two AGT variants in one sample with CPTG and BG-Bt; assay type: biochemical; conditions: CPTG and BG-Bt both at 5 μM, 30 minutes
# Description: FIG. 2: Western blot of the reaction of wild type hAGT (GST-hAGT fusion protein) and AGTM with the two substrates N^9-cyclopentyl-O^6-bromophenyl-guanine (CPTG) and biotinylated O^6-benzylguanine (BG-Bt, substance 3a of Juillerat et al. 2003) as described in Example 7. BG-Bt is present in all samples at 5 μM. Detection with neutravidin-peroxidase conjugate and luminescent peroxidase substrate detecting any AGT reacted with BG-Bt. Even under simultaneous incubation with identical concentrations of CPTG and BG-Bt only about 5% of GST-hAGT reacts with substrate BG-Bt.
# Within the experiment two tags with different size for the two AGT proteins are used: The His-tagged AGTM (˜20 kDa) and GST-hAGT (cloned and prepared as described in Example 1, but starting with the wild type hAGT gene, ˜48 kDa) are diluted to 0.2 μM and 1.2 μM final concentration, respectively, in reaction buffer containing 50 mM HEPES, 1 mM DTT, 200 mg/mL BSA (pH 7.3). The sample is incubated with a mixture of substrates N^9-cyclopentyl-O^6-bromophenyl-guanine (CPTG; 0, 5 and 10 μM final concentrations) and biotinylated O^6-benzylguanine (BG-Bt, 5 μM final concentration) for 30 minutes. The reaction is quenched by addition of SDS-Laemmli buffer and subjected to Western blotting analysis (Example 1). As the two AGT variants have different masses, the two proteins can be separated on an acrylamide gel and analyzed independently. […] At the same concentration (both substrates at 5 μM final concentration), 95% of GST-hAGT reacts with CPTG, versus only 5% of His-tagged AGTM.
# salmon sperm DNA = test: DNA binding as inhibition by DNA of the reaction with BG-Cy3; conditions: salmon sperm DNA 25 µg/ml
# Description: The interaction with DNA is e.g. quantified by assessing the amount of copurified DNA from E. coli extracts under conditions of low salt and absence of DNase. This is compared between parallel purifications of fusion proteins (e.g. fusions to GST) of wild type (human) and mutant AGT by spectroscopic methods (ratio of absorbance at 260 and 280 nm). Alternatively the interaction of AGT with DNA is measured as the inhibition of AGT reactivity with BG-Cy3 (O^6-(4-aminomethyl-benzyl)-guanine coupled to Cy3) as substrate in the presence of DNA. This approach takes advantage of a marked increase of fluorescence of the Cy3 fluorophore upon reaction of BG-Cy3 with AGT. The reaction kinetics of AGT with a Cy3-labeled benzylguanine derivative is followed by fluorescence intensity measurements over several hours at various concentrations of salmon sperm DNA.
# DNA binding: DNA binding is measured as inhibition by DNA of the reaction of AGT mutants with BG derivatives. The reaction rate of AGT mutants in a reaction mixture containing salmon sperm DNA (25 µg/ml) instead of oligonucleotide is measured with the BG-Cy3 assay. The reaction rate is determined by fitting the obtained data to a monoexponential increase to maximum.
# [2] = BG-Cy3 activity assay (reaction rate of AGT mutants); assay type: biochemical; conditions: divided by value for wild type hAGT; purified GST fusion proteins (p.)
# Description: (§1) Reactivity against DNA-based substrates measured with a BG-Cy3 assay: BG-Cy3 is prepared by reacting the previously described O^6-(4-aminomethyl-benzyl)guanine (Keppler et al., NatureBiotechnol. 21:86-89, 2003) with the commercially available N-hydroxysuccinimide ester of Cy3, (Cy3-NHS, Amersham). The coupling reaction is performed at ambient temperature in N,N-dimethylformamide in the presence of 1 eq. of triethylamine. The BG-Cy3 conjugate is purified by reversed-phase HPLC on a C18-column by using linear gradients from 0.1% trifluoroacetic acid to acetonitrile. After solvent evaporation BG-Cy3 is dissolved in dimethyl sulfoxide and stored at −20° C. For measuring the reactivity with DNA-based substrates, a reaction mixture containing different concentrations (0 to 5 µM) of oligonucleotide SEQ ID NO:2 (modified in position 14), GST-AGT fusion protein at 0.2 µM and BG-Cy3 at […] in reaction buffer (50 mM HEPES, pH 7.2, 1 mM DTT, 200 mg/ml BSA) is incubated in microtiterplates. Fluorescence of the Cy3 derivative (excitation 519 nm, emission at 572 nm) is measured on a Spectramax Gemini plate reader (Molecular Devices).
# The amplified products are cloned in fusion to the g3 gene of filamentous phage in the vector pAK100 via SfiI restriction sites. The resulting gene libraries are used for phage display as described under Example 4. The mutants of the libraries are selected with 5 to 50 nM of BG-Bt for 10 min. Selected mutants are subcloned into pGEX using the primers SEQ ID NO:3 and SEQ ID NO:13. The reaction rate of mutant AGTs is determined as described in Example 6, Reactivity against DNA-based substrates (BG-Cy3 assay).
# For the activity assay purified GST fusion proteins were used for mutants marked with “p.” (prepared as described under Example 1); periplasmic extracts were used for mutants marked with “x.” (prepared as described under Example 2).
# [3] = test system: oligonucleotide SEQ ID NO:2 (modified in position 14); test: Reactivity against DNA-based substrates (BG-Cy3 assay with BG-modified oligonucleotide); assay type: biochemical
# Description: The ability of wild type AGT or mutant AGT to react with alkylated DNA substrates is measured as the reaction of its inactivation by a synthetic oligonucleotide containing O^6-benzylguanine (SEQ ID NO:2, modified in position 14). Subsequently, the reactions are quenched by incubation with biotinylated O^6-alkylguanine. Samples are subjected to Western blotting and detection with streptavidin derivates to obtain kinetic constants for these substrates. Alternatively, the ability of wild type or mutant AGT to react with alkylated DNA substrates is measured via its labeling efficiency in competition with a fluorescent substrate of AGT. The reaction kinetics of AGT with BG-Cy3 (O^6-benzylguanine coupled to Cy3) is followed by fluorescence intensity measurements at various concentrations of a competing synthetic oligonucleotide containing O^6-benzylguanine (SEQ ID NO:2, modified in position 14).
# as §1
molecule,measurement,setting,value
B1,fraction of protein reacting with CPTG,[1],5%
same,reduction of reaction rate to BG-Cy3 in presence of DNA,salmon sperm DNA,unchanged
same,Relative reaction rate,[2],2.72
same,reduced reactivity with DNA substrates (factor),[3],≥ 100
same,reaction with BG-Cy3 in presence of BG-modified oligonucleotide,[3]; up to 5 µM BG-modified oligonucleotide,no reduction
